# In US20200347384:
# pKd: −log10 of the molar value.
# How the values were obtained:
# [1] = molecular target: T1, HIV-1 reverse transcriptase (HIV RT) (Human immunodeficiency virus) (UniProt P03366+P03366); test: MST; conditions: TNA at all positions; triplicate
# [2] = molecular target: T1, HIV-1 reverse transcriptase (HIV RT) (Human immunodeficiency virus); test: EMSA; conditions: TNA at all positions; ~500 pM after 1 h 37 C with snake venom phosphodiesterase (p160)
sequence,measurement,setting,value
AATAGTAAATTGATTTAAAAATTTCATAAATGCTACATAA [HIV-RT 3.17],pKd,[1],9.42
same,pKd,[2],9.71
